Reference: the nanobody polyreactivity screen of Harvey et al. (2022)

test: yeast display, Sf9 membrane polyspecificity reagent, FACS + sequencing; frameworks hold sequencing errors
Method in brief: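 Nanobodies came from a synthetic yeast display library in Saccharomyces cerevisiae BJ5465, induced with galactose for 36–48 hours and stained for 1 hour at 4 °C with 10% biotinylated, detergent-solubilized Sf9 membrane reagent. Cells were enriched on streptavidin microbeads and then FACS-sorted, with low and high (top ~1%) gates set on anti-HA fluorescence for expression and streptavidin fluorescence for reagent binding. Each polyreactivity label reflects the gate a clone came from. Genes were amplified by colony PCR, sequenced by MiSeq 2 × 250 and filtered by CDR length.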

Sequence	polyreactivity (PSR sort gate)
QVQIVESGGGLVQAGGSLRLSCAASGSIFPHYAMGWYRQAPGKERELVAAISRGGSTNYADSVKGRFTISRDNAKNTVYLQMNSLKPEDTAVYYCNALRYYSRFLYAVAYRYDYWGQGTQVTVSS	high polyreactivity
QVQIVESGGGLVQAGGSLRLSCAASGSNFLFYVMGWYTQAPVKERELVAAINTGVSTNYADSVKGRFTISRDNAKNTVYLQLNSLKPEDTAVYYCNALPYTSDGRGGYWGQGSQVTVSS	low polyreactivity
QVQIVESGGGLVQAGGSLRLSCAASGSTFGDNAMGWSRQAPGKERELVAAITRSGGSTYYADSVKGRFTISRDTAKNTVYLHMHSLKPEDTAVYYCNADWYFQYPYDYGGQGTQVTVSS	low polyreactivity
QVQIVESGGGLVQAGGSLRLSCAASGSTFLKYTMGWYRQAPGKERELVAAISKSGGSTYYADSVKGRFTISRDNAKNTVYLQMNSLKPEDTAVYYCAIGRSWVSSYGYGYWGQGTQVTVSS	high polyreactivity
QVQIVESGGGLVQAGGSLRLSCAASGSTFNRNAMGWNRQATGKERELVAAITRSASSTYYADSVKGRFTISRDNAKNTVYLQMNSLKPEDTAVYYCAVEYVAYLYRMDYWGQGTQVTVSS	high polyreactivity
QVQIVESGGGLVQAGGSLRLSCAASGSTFPSYAMGWYRQATGKEREWVAAITRSCGRTYYADSVKGRFTISRDNSKHTVYLQMNSLKPEDTAVYYCAADLGSNYDYWGQGTQVTVLS	low polyreactivity
QVQIVESGGGLVQAGGSLRLSCAASGSTFYEYAMGWYRQAPGKERELVATITSGGRTYYADSVKGRFTISRDNAKNTVYLQMNSLKPEDTAVYYCAAAGKGRFHFRSTMDYWGQGSQVTVSS	high polyreactivity
QVQIVESGGGLVQAGGSLRLSCAASGSTLSYYGMGWYRQAPGKERELVAAISTGGRTYYADSVKGRFSISRDNATNTVFLQMTSLKPEDTAVYYCNALYVSYVSRYDYWGQGTQVTVSS	high polyreactivity
QVQIVESGGGLVQAGGSLRLSCAASVFTFGENAMGWYRQAPGKERELVAAITSGDGTSYADSVKGRFTISRDNAKYTVYLQMNSLKPEDTSVYYCAADVGDELYYSTYDYWGQGTQVTVSS	low polyreactivity
QVQIVESGGGLVQAGGSLRLSCAAYGRTFSYYTMGWYRQAPGKERELVARISNRGTNTYYADSEKGRFTISRDNAKNTVYLQMNSLKPEDPAVYYCAKYYSTSIVGYDSWGQGTQVTVSS	low polyreactivity
QVQIVESGGGLVQAGGSLRLSCASSGIIFWPNAMGWYRQAPGKERELVASITSGGYTYYADYVKGRFTISRDNAKNTVYLQMNSLKPEDTAVYYCAAEWYPYGPKRYYWGQGTQVTVSS	low polyreactivity
QVQIVESGGGLVQAGGSLRLSCASSGSTSYRNAMGWYRQAPGKEREFVASISKSTDSTYYADSVKGRFTISRDNAKNTVYLQMLSLKPEDTAVSYCADVQGYKGLQDDSWGQGTQVTVSS	high polyreactivity
QVQIVESGGGLVQAGGSLRLSCDASGFIFYYYAMGWYRQAPGKERELVATITSGGGSTYYADSVKGRFTISRDNAKNTVYLQMNSLKPEDTAVYYCAAKGPYYKSSRTGDYWGQGTQVTVSS	low polyreactivity
QVQIVESGGGLVQAGGSLRLSCDASGSIFNYNAMGWYRQAPGKEREFVAAINQGGTSTYYADSVKGRFTISRDNAKNTVYLQINSLKPEDTAVYYCAALITVYRGSYEYWGQGTQVTVSS	low polyreactivity
QVQIVESGGGLVQAGGSLRLSFAASGSTFVLYAMGWYRPAPGKERELVAAISGGATTTYADSVKGRFTISRDNAKNSVYLQMNSLKPEDTAVYYCAADFYTFVVSGAAMDYWGQGTQVTVSS	low polyreactivity
QVQIVESGGGLVQAGGSLRLTCAASGFTFTDYAMGWYRQAPGIERELVAVITYDSTYYADSVKGRFTISRDNAKNTVSLHMNSLKPEDTAVYYCAADSYDWGEFDYWGQGTQVTVSS	low polyreactivity

Sequence	polyreactivity (PSR sort gate)
QVQIVESGGGLVQAGGSLRLTCAASGSILWYNTMGWYRQAPGKERELVAAIRTSGSRTYYADSVKGRFTISRDNAKNTVYVQMNSLKPEDTAVYYCAAERGSQRVRSGYWGQGTQVTVSS	high polyreactivity
QVQIVESGGGLVQAGGSLRVSCAASGRTFRLYAMGWYRQAPGKERELVAAITRGGRTNYADSVKGRFTISRDNAKYTVYLHMNSLKPEDTAVYYCAARYVERHTDYYYWGQGSQVTVSS	low polyreactivity
QVQIVESGGGLVQAGGSLRVSCAPSGRTFLPYGMGWYRQAPGKEWELVASITSGGSTNYADSVKGRFTISRDNAQNTVYLQMNSLKPEDTAVYYCNKQTIPEWPWVKYSNGYDHWGHGTQVTVSS	low polyreactivity
QVQIVESGGGLVQAGGSLSLSCAASGFTLVGYAMGWYRQAPGKERELVAAISSGGRTKYADSVKGRFTISRDNAKNTVYLQMNSLKPEVTAVFYCAAPYNVRWRYGYWGQGTQVTVSS	high polyreactivity
QVQIVESGGGLVQAGGSLSLSCAASGRTFQRNAMGWYRQAPGKERELVAAITTGSRTYYADSVKGRFTISRDNAKNTVYLQMNSLKPEDTAVYYCAAVATRRDYGYWGQGTQVTVLS	high polyreactivity
QVQIVESGGGLVQAGRSLRLSCAASGIIFDHYAMGWYRQAPGKERELVAAITTGGGNTYYADSVKGRFTISRDNAKNTVYLQMNCLKPEDTAVYYCNDDGLWGRRWGDYYGYDYWGQGTQVTVSS	low polyreactivity
QVQIVESGGGLVQAGVSLRLSCAPSGFIFSVYAMGWYRQAPGKEMELVAGITRNGGITYYADSVKWRFTISRDNAKNTVYLQMNSLKPEDSAVYYCAAQAPKRRPFYGYYWGQGTQVTVSS	high polyreactivity
QVQIVESGGGLVQEGGSLRISCAASGFTFTANAMGWYRQAPGKERELVAAITRNGGRTYYADSVKGRFTISRDNAKNTVYFQMNSLKPEDTAVYYCAKPTSQRIHDDYDYWGQGTQVTVSS	high polyreactivity
QVQIVESGGGLVQEGGSLRLSFAASGSTFYYYPMGWYRQAPGKERELVAAITSGDTTNYADSVKGRFTISRDNAKNTVYLQMNSLKPEDTAVYYCAVDLNTTAFYPVAATYLDDYWGQGTQVTVSS	low polyreactivity
QVQIVESGGRLDQAGGILRLSCAASGRTFTVNAMGWNRQAPGKERELVATIRSGGTTNYAASVKGRFTISRDNAKNTVYLTMNRLKPEDTAVYYCNARVLTRTSVVRYYYWGQGTQVTVSS	high polyreactivity
QVQIVESGGRLVQAAGRLSLTCAASGSIFVWNAMGWYRQEPGKEREVVAAITNIGGRTYYADSVKGRFTISRDNAKYTVYLQMNSQKPEATAGYYCNSDLVSRLGWSTTSDSWGQGTQVTVSS	high polyreactivity
QVQIVESGGVLDHAGGSLRLSCAATVGTSIPNAMGWYRQAPGKERELVAAITRSGGRTYYADSVKGRFTISRDNATNTVYLQMNSLKREDTAVYYCAARVRTTSVRGRYDYWGQGTQVTVSS	high polyreactivity
QVQIVESGGVLVQAGGSLRLSCAASGSITYFNAMGWYRQAPGKERELVAAISYSGGSTYYADSVKGRFTISRDNAKNTVYLQMNSLKPEDTAVYYCAADRLIGWRKTYYYWGQGTQVTVSS	high polyreactivity
QVQIVESGRGLVQAGGSLRLSCAASGSTFKYYAMGWYIQAPGKERELVAAISWTGGSTYYADSVKGRFTISRDNAKNTVYLQMNSLKPEDTAVYYCNALGHVQGYDYWGQGTQVTVSS	high polyreactivity
QVQIVESGRGLVQAGGSLRLSCASSGFTFVSYAMGWYRQAPGKERELDASISKRGGTTYYADSVKGRFTISRDNAKNTVYLQMNSLKPEDTAVYYCYARDTRRYVTYDSGYDYWGQGTQVTVSS	high polyreactivity
QVQIVESRGCLVQAGGSLRLICAASGSIFLANAMGWYRQAPRKEREFVPAITSSGGSTYYADSVKGRFTISRDNAKNSVYLQMNSLKPEDTAVYYCNVRPRYRWRSTPYGYWGQGTQVTVSS	high polyreactivity
